In the supplement of paper PMC9732359:
± gives the uncertainty stated by the source.

Experiment: protein stability index of a GFP-peptide fusion (yeast GPS) (PSI 1-4); higher = more stable; sorted into four equal gates, so the index is relative within each strain
Outline: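 Plasmids in a pooled yeast library fused tiled 17-residue yeast protein peptides downstream of GFP and also expressed Cherry. Mid-log cultures grown without leucine were sorted into four equal gates by GFP/Cherry fluorescence ratio. Each gate's plasmids were PCR-amplified and Illumina-sequenced, and reads were matched to strains by barcodes. The protein stability index is derived by multiplying each gate's read frequency by its gate number and summing the results.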

Sequence	protein stability index (doa10∆)	protein stability index (pdr5∆)	protein stability index (san1∆)	protein stability index (ubr1∆)
TQIVAKFPETSYPILNE [SIN4]	2.92 ± 0.091	3.02 ± 0.068	2.91 ± 0.081	2.89 ± 0.057
TQLSYLISSSLSNLSKD [YCS4]	1.7 ± 0.041	1.65 ± 0.041	1.63 ± 0.074	2.13 ± 0.045
TQSYNNQNTLKEISARR [POP1]	2.29 ± 0.041	2.48 ± 0.035	2.24 ± 0.063	2.78 ± 0.037
TRDDLLTILMRSIMKNR [RRI2]	2.36 ± 0.082	2.61 ± 0.087	2.22 ± 0.29	2.75 ± 0.067
TRLTAYQELAYRATSLD [YML031W/NDC1]	3.13 ± 0.11	3.01 ± 0.11	3.32 ± 0.072	3.04 ± 0.11
TRMQRGHRADVGGQFSK [REC8]	2.98 ± 0.13	3.32 ± 0.13	3.27 ± 0.074	3.39 ± 0.12
TRNSLGNVIQFIYGEDG [RPO21]	3.01 ± 0.06	2.92 ± 0.053	3.25 ± 0.042	3.28 ± 0.037
TRNSNNLAIVELVRLLI [BRR2]	2.56 ± 0.06	2.29 ± 0.049	2.53 ± 0.066	2.4 ± 0.049
TRPYILERARDVNIVNR [YCG1]	3.29 ± 0.1	2.78 ± 0.21	3.48 ± 0.18	3.08 ± 0.11
TRSHFNALYDTLLESNL [RPN6]	2.3 ± 0.05	2.49 ± 0.057	2.65 ± 0.047	2.69 ± 0.042
TSAHLKLKEMQKVLNAH [SMC4]	2.41 ± 0.13	2.76 ± 0.17	2.63 ± 0.096	1.97 ± 0.085
TSAKEPSENDVFYRMQQ [RPO31]	3.08 ± 0.082	3.08 ± 0.092	3.13 ± 0.14	2.7 ± 0.099
TSDLVKSLGLKLPLSVI [RPS17A]	1.12 ± 0.07	1.52 ± 0.078	1.86 ± 0.16	1.95 ± 0.091
TSEMKVLSIPPANHLQS [YGL100W/SEH1]	2.64 ± 0.067	2.15 ± 0.076	2.39 ± 0.081	2.56 ± 0.05
TSFEQGEITFDGIGGLT [RPT4]	3.1 ± 0.085	3.18 ± 0.074	3.05 ± 0.066	3.49 ± 0.059
TSGTNIAGTFNVGKPDQ [YOR098C/NUP1]	3.22 ± 0.088	3.01 ± 0.11	3.27 ± 0.079	3.21 ± 0.1
TSIANAFRRIMISEVPS [RPC40]	1.71 ± 0.043	1.83 ± 0.046	2.45 ± 0.061	1.88 ± 0.042
TSIRLEGDELENKTKKD [SRB4]	–	3.78 ± 0.26	–	–
TSKQHKRSGHRTAPKSD [RPL18A]	3.18 ± 0.23	–	3.1 ± 0.14	3.06 ± 0.2
TSLFGSSSAQQTKSNGT [YJL041W/NSP1]	3.23 ± 0.11	3.4 ± 0.098	2.71 ± 0.13	3.19 ± 0.073
TSLFHKFILSGFIFTSM [RRI2]	2.09 ± 0.046	1.66 ± 0.03	1.94 ± 0.07	1.52 ± 0.044
TSNASMNTTLGSIGSRK [YAR002W/NUP60]	3.32 ± 0.1	3.27 ± 0.11	3.37 ± 0.063	3.26 ± 0.085
TSPGFGVSSPGFSPTSP [RPO21]	2.7 ± 0.077	2.66 ± 0.071	2.5 ± 0.058	2.93 ± 0.043
TSPSYSPTSPSYSPTSP [RPO21]	2.64 ± 0.045	3 ± 0.038	2.77 ± 0.033	2.81 ± 0.03
TSQHSDSLTQNNNNAPI [YOR098C/NUP1]	2.72 ± 0.051	2.95 ± 0.036	2.94 ± 0.043	2.88 ± 0.031
TTARNDLGVVFARAANG [CSL4]	1.87 ± 0.056	2.02 ± 0.12	1.87 ± 0.14	2.39 ± 0.048
TTESNSRLKALNLQFKA [YLR335W/NUP2]	3.25 ± 0.11	3.04 ± 0.064	3.15 ± 0.066	2.98 ± 0.073

Sequence	protein stability index (doa10∆)	protein stability index (pdr5∆)	protein stability index (san1∆)	protein stability index (ubr1∆)
TTFEYIIKERALLSKVK [SNF2]	1.58 ± 0.046	1.67 ± 0.048	1.41 ± 0.071	1.37 ± 0.036
TTFRNEYGKHDFKNEES [MED8]	3.05 ± 0.1	3.01 ± 0.084	3.14 ± 0.051	3.28 ± 0.096
TTFTHCEIHPSMILGVA [RPB2]	1.75 ± 0.11	2.39 ± 0.075	1.3 ± 0.14	2.57 ± 0.098
TTFTKVAAKWNTSLISL [PRP8]	2.09 ± 0.052	2.39 ± 0.06	2.4 ± 0.082	2.06 ± 0.036
TTGISSTGAADGGYNAQ [SMC2]	3.32 ± 0.13	3.4 ± 0.093	3.23 ± 0.069	3.17 ± 0.11
TTIQTEKVRPTPGEVAS [MCD1]	2.74 ± 0.043	2.44 ± 0.041	2.8 ± 0.04	2.84 ± 0.034
TTKERKKSRLGNSFHLM [PRP8]	2.7 ± 0.066	2.83 ± 0.065	2.57 ± 0.062	2.48 ± 0.054
TTLDAEKVFTQGLNILE [FAS1]	3.17 ± 0.11	3.21 ± 0.1	3.32 ± 0.091	3.28 ± 0.064
TTQRRYEKAQKDLENAQ [SMC1]	3.05 ± 0.098	3.31 ± 0.069	3.2 ± 0.052	3.14 ± 0.1
TTVPFKESDDPSIPLVI [POP1]	2.8 ± 0.068	3.01 ± 0.069	2.87 ± 0.054	2.89 ± 0.077
TVKFKHMDYDGNIVKEF [YMR129W/POM152]	2.89 ± 0.079	2.39 ± 0.043	2.67 ± 0.094	2.99 ± 0.05
TVMFFYHNKHMMCDFGT [DIB1]	2.58 ± 0.049	2.51 ± 0.046	2.6 ± 0.046	2.54 ± 0.032
TVRKSIACVLTVINEQQ [RPL35A]	1.62 ± 0.077	2.07 ± 0.077	2.21 ± 0.079	2.11 ± 0.063
TWIHSEIEELKSSIQNL [SMC3]	2.27 ± 0.11	2.3 ± 0.068	2.29 ± 0.21	3.08 ± 0.11
TYDMVGGLTKQIKEIKE [RPT6]	2.26 ± 0.15	2.52 ± 0.17	1.89 ± 0.23	2.56 ± 0.08
TYEAIDVPGRELKYELI [RPB2]	3.01 ± 0.15	3.13 ± 0.098	3.1 ± 0.18	3.81 ± 0.16
TYGFLTPNLWAEQPLPV [RPS2]	1.21 ± 0.056	1.38 ± 0.081	1.37 ± 0.11	1.54 ± 0.059
TYQLCVRLRSNVIKTGI [RPN3]	3.25 ± 0.14	3.35 ± 0.14	3.27 ± 0.084	–
TYRYVSVSVLVDRLKIG [RPS25A]	2.28 ± 0.091	1.48 ± 0.08	1.72 ± 0.072	1.45 ± 0.039
TYSTPKRPYESSRLDAE [RPS9A]	2.97 ± 0.073	3.02 ± 0.062	2.93 ± 0.082	2.87 ± 0.064
VAAASKILSNLVYQYKG [PRE2]	2.62 ± 0.088	2.5 ± 0.056	2.54 ± 0.078	2.49 ± 0.051
VAALVSLTEKFSQTVAD [ECM29]	2.77 ± 0.08	1.61 ± 0.059	1.8 ± 0.14	1.67 ± 0.085
VAGAIRAGIIIAKLSVI [RPS2]	1.91 ± 0.1	2.35 ± 0.098	1.4 ± 0.13	2.65 ± 0.083
VAKLANWFLEVYASGNP [YML031W/NDC1]	2.1 ± 0.069	2.09 ± 0.049	1.89 ± 0.12	1.12 ± 0.055
VAPFMIKYEFNGIPLKS [YMR129W/POM152]	2.54 ± 0.077	1.91 ± 0.045	2.38 ± 0.083	2.75 ± 0.073
VAQGIMNAGGRNVTIQL [RPN2]	–	2.61 ± 0.21	–	–
VCMHCGKLLLDEHNELM [RPO21]	–	2.94 ± 0.18	2.77 ± 0.28	3.14 ± 0.084
